assay: yeast display, Sf9 membrane polyspecificity reagent, FACS + sequencing; frameworks hold sequencing errors
In short: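 Polyreactivity labels are assigned by the sorting gate from which each nanobody was recovered. The gates were low and high (top ~1%), set on anti-HA fluorescence for expression and streptavidin fluorescence for reagent binding. Before sorting, galactose-induced (36–48 hours) yeast display cells were stained for 1 hour at 4 °C with 10% biotinylated, detergent-solubilized Sf9 membrane reagent.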

Sequence	polyreactivity (PSR sort gate)
QVQLVESGGGLVQAGGSLRLSCAASGSIFSGYTMGWYRQAPGKERELVAAISSDGSTTYADSVKGRFTISRDNAKNTVYLQMNSLKPEDTAVYYCAAYPYWDGSYGGYDYWGQGTQVTVSS	low polyreactivity
QVQLVESGGGLVQAGGSLRLSCAASGSIFSGYVKGWYRQAPGKDMELVAAISGSGGSTYYADSVKGRFTISRDNAKNTVYFQMNSLKPEDTAVYYCNVDRSPTHIVGYGYWGQGTQVTVSS	low polyreactivity
QVQLVESGGGLVQAGGSLRLSCAASGSIFSGYVMGWYRQAPGKERELVAAISGSGGSTYYADSVKGRFTISRDNAKNTVYLQMNSLNPEDTAVYYCNKGLSRSYWWVDYWGQGTQVTVSS	low polyreactivity
QVQLVESGGGLVQAGGSLRLSCAASGSIFSGYVMGWYRQAPGKERELVAAISSGGSTYYADSVKGRFTISRDNAKNTVYLQMNSLKPEDTAVYYCAARSRKYGLLFYYWGQGTQVTVSS	high polyreactivity
QVQLVESGGGLVQAGGSLRLSCAASGSIFSHNAMGWYRQAPGKERELVASMTGSGGSTYYADSVKGRFTISRDNAKNTVYLHMNSLKPEDTAVYYCAADSYGRSETEDDYWGQGTQVTVSS	low polyreactivity
QVQLVESGGGLVQAGGSLRLSCAASGSIFSHYAMGWYRQAPGKERELVAAISRSGGSTYYADSVKGRFTISRDNAKNTVYLQMNSLKPEDTAVYYCAKEGDSGYWFDYWGQGTQVTVSS	low polyreactivity
QVQLVESGGGLVQAGGSLRLSCAASGSIFSINAMGWYRQAPGKERELVAVISWIGGNTYYADSVKGRFTISRDNAKNTVYLKMNSLKPEDTAVYYCAVATGPVSYRRYYCGQGTQVTVSS	high polyreactivity
QVQLVESGGGLVQAGGSLRLSCAASGSIFSKNAMGWYRQAAGKEWEWVAAISRSAGSTYYADSVKGRFTISRDNAKNTVYLQMNSLKPEDTAVYYCAAEGYRWVTAYYDYDEDYWGQGTQVTVSS	low polyreactivity
QVQLVESGGGLVQAGGSLRLSCAASGSIFSKYAMGWYRQAPGKERELVAAIDWSGGSTYYADSVKGRFTISRDNAKNTVYLQMNSLKPEDTAVYYCNAEYVVADYGYYTIEFDYWGQGTQVTVSS	low polyreactivity
QVQLVESGGGLVQAGGSLRLSCAASGSIFSKYTMGWYRQAPGKERELVAAIRGSGVRTYYADSVKGRFTISRDNAKNTVYLQMNSLKPEDTAVYYCAKVVYRGKVALWISSTAGSDYWGQGTQVTVSS	low polyreactivity
QVQLVESGGGLVQAGGSLRLSCAASGSIFSLYAMGWYRQAPGKERELVAAISRGGSTNYADSVKGRFTISRDNAKNTVYLQMNSLKPEDTAVYYCNAGFGVRRKHITFYTWYDYWGQGTQVTVSS	low polyreactivity
QVQLVESGGGLVQAGGSLRLSCAASGSIFSLYAMGWYRQAPGKERELVAAISSSGTSTYYADSVKGRFTISRDNAKNTVYLQMNSLKPEDTAVYYCNAYREFDWGQGTQVTVSS	high polyreactivity
QVQLVESGGGLVQAGGSLRLSCAASGSIFSLYAMGWYRQAPGKERELVTAITSGGRTKYADSVKGRFTISRDNAKNTVYLQMNSLKPEDTAVYYCAARDDSEKRYLTQYAYNYWGQGTQVTVSS	low polyreactivity
QVQLVESGGGLVQAGGSLRLSCAASGSIFSPNAMGWYRQAPGKEMELVPRITSGGSTFYADSVKGRFTISRDYAKNTVYLQMYSLKPEDTAVSYCAAVQTRYTSVFSSTRYDYWGQGTQVTVSS	low polyreactivity
QVQLVESGGGLVQAGGSLRLSCAASGSIFSPNAMGWYRQAPGKERELVAAITDSGGSTYYADSVKGRFTISRDNAKNTVYLQMNSLKPEDTAVYYCAVATGLLYKSHGYWGQATQVTVSS	low polyreactivity
QVQLVESGGGLVQAGGSLRLSCAASGSIFSPNAMGWYRQAPGKERELVAAITRGGSTYYADSVKGRFTISRDNAKKTVYLQMNSLKPEDTAVYYCAKRSKQFSTQYLYGYWGQGTQVTVSS	low polyreactivity

Sequence	polyreactivity (PSR sort gate)
QVQLVESGGGLVQAGGSLRLSCAASGSIFSPNDMGWYRQAPGKERELVAAITSAGSTYYADSVKGRFTISRDNAKNTVYLQMNSLKPEDTAVYYCSASYISVTDYAYFPLWYGYWGQGTQVTVSS	low polyreactivity
QVQLVESGGGLVQAGGSLRLSCAASGSIFSPNDMGWYRQAPGKERELVAAITTAGSTYYADSVKGRFTISRDTAKNTVYLQMNSLKPEDTAVYYCAATYISVTDYAYFPLWYGYWGEGTQVTVSS	low polyreactivity
QVQLVESGGGLVQAGGSLRLSCAASGSIFSPYAMGWYRQAPGKEREFVAAITWSDGGTYADSVKGRFTISRDNAKNTVYLQMNSRKPEDTAVYYCAAKLASYLVTGMDYWGQGTQVTVSS	low polyreactivity
QVQLVESGGGLVQAGGSLRLSCAASGSIFSPYAMGWYRQAPGKERELVAAISYGVGNTYYADSVKGRFTISRDNAKNTVYLQMNSLKPEDTAVYYCAAEEYDYVYPHYFTKGYYWGQGTQVTVSS	high polyreactivity
QVQLVESGGGLVQAGGSLRLSCAASGSIFSQKAMVWYRQAPGKERELVASISTGDSSTYADSVKGRFTISRDNAKNTVYLQMNSLKREDTAVYYCNAYRYNALPWRYVGYDYWGQGTQVTVSS	low polyreactivity
QVQLVESGGGLVQAGGSLRLSCAASGSIFSQNAIGWYRQAPGKEMELVAAISSSGTRTYYADSVKGRFTISRDHAKNTVYLQMNSLKPEDTAVYYCNKVLFRPRFFVRSDYWGQGTQVSVSS	high polyreactivity
QVQLVESGGGLVQAGGSLRLSCAASGSIFSQYAMGWYRQAPGKERELVAAISRSGGTTYYADSVKGRFTISRDNAKNTVYLQMNSLKPEDTAVYYCAADLKARRGSYDRFYYWGQGTQVTVSS	high polyreactivity
QVQLVESGGGLVQAGGSLRLSCAASGSIFSRNAKGWYRQAPGKERELVAAISRGANTYYADSVKGRLTISRDNAKNSVYLQMNSLKPEDTAVYYCAARIYKFPYTYDYWGQGTQVTVSS	high polyreactivity
QVQLVESGGGLVQAGGSLRLSCAASGSIFSRNAMGWSRPAPGKERELVAAISWSGGRKYYADSVKGRFTISRDNAKNTVYLQMNSLKPEDTAVYYCAAKVGYLAAYGRIRVYRYGYWGQGTQVTVSS	high polyreactivity
QVQLVESGGGLVQAGGSLRLSCAASGSIFSRYAMGWYRQAPGKESELVAASRWTDSSTYYADSVKGRFTISRDNAKNTVYLQMNSLKPEDTAVYYCAKVYERGSNKVDYWGQGTQVTVSS	low polyreactivity
QVQLVESGGGLVQAGGSLRLSCAASGSIFSRYAMGWYRQAPGTERELVAAITSSGTSTYYADSVKGRFTISRDNAKNTVYLQMNSLKPEDTAVYYCAAAFRQRTSRYDYWGQGTQVTVSS	high polyreactivity
QVQLVESGGGLVQAGGSLRLSCAASGSIFSRYTMAWYRQAPGKERELVARINSSGTSTYYADSVKGRFTISRDNAKNTVFLQMNSLKPEDTAVYYCARTSRHVRYDYWGQGTQVTVSS	low polyreactivity
QVQLVESGGGLVQAGGSLRLSCAASGSIFSRYTMGWYRQAPGKERELVARINSSGTSTYYADSVKGRFTISRDNAKITVYLQMNSLKPEDTAVYYCARTSRHVRYDYWGQGTQVTVSS	low polyreactivity
QVQLVESGGGLVQAGGSLRLSCAASGSIFSSNAMGWYRQAPGKDRELVASISWTGGNTYADSVKGRFTISRDNAKNTVYLQMNSLKPEDTAVYYCNAGRSWDYWYGYDYWGQGTQVTVSS	low polyreactivity
QVQLVESGGGLVQAGGSLRLSCAASGSIFSSNAMGWYRQAPGKERELVAAISSSGGSTYYADSVKGRFTISRDNAKNTVYLQKNSLKPEDTAVYYCATGKQVYGHYYWGQGTQVTVSS	low polyreactivity
